The target of assay [1] is T1, human CD300A-Q (human, UniProt Q9UGN4 18-299).
T1 construct: whole, on cells; also called huCD300A-Q; human CD300A^Gln111
T1 sequence (looked up): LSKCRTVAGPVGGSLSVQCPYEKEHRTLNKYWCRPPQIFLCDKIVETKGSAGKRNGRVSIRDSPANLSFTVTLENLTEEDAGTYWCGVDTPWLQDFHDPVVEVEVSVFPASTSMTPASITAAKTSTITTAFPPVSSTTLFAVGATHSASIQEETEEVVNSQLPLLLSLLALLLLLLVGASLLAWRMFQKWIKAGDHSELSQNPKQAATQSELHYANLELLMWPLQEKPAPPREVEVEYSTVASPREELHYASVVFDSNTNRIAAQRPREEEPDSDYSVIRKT
The assay is described as follows: flow cytometry analysis using CD300A-Q. In general terms: Flow cytometry measures light scatter and fluorescence of single cells or particles in a stream.

Assay [2] has as its target T2, human CD300A-R (as used in the BLI measurement) (human, UniProt Q9UGN4 18-180, limits assumed).
T2 sequence (looked up): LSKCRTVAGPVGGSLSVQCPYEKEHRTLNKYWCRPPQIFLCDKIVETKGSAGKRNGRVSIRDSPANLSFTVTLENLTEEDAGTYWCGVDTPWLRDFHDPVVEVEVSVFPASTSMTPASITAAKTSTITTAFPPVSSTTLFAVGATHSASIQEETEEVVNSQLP
Nature of the assay: biolayer interferometry (BLI); format not described. (BLI is a label-free optical method that tracks binding on a fibre tip over time.)

Assay [3] deals with T3, human CD300C (human, UniProt Q08708 21-224).
T3 construct: whole, on cells; also called huCD300C; BW/huCD300C
T3 sequence (looked up): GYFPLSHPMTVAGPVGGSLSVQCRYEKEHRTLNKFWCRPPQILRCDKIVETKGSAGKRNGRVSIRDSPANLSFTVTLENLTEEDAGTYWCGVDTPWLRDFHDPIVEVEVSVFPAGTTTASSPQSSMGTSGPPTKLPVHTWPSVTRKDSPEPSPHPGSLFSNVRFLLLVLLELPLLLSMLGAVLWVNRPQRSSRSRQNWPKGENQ
The assay is described as follows: flow cytometry on BW/huCD300C cells, biotinylated antibody with SA-APC.

The target in assay [4] is T1, human CD300A-Q. Nature of the assay: assay not named for Hu NO. 1V on CD300A-Q (CD300A-Q flow cytometry is listed for Hu NO. 1R, 1U and 1W).
In assay [5] the target is T1, human CD300A-Q. Nature of the assay: assay not named for Hu NO. 1T on CD300A-Q (CD300A-Q flow cytometry is listed for Hu NO. 1R, 1U and 1W).
The target of assay [6] is T3, human CD300C. Nature of the assay: flow cytometry on BW/huCD300C cells, purified antibody.
In assay [7] the target is T1, human CD300A-Q. The assay is described as follows: flow cytometry on BW/huCD300A-Q cells, purified antibody, 0.5 µg per 1 × 10^5 cells.
Assay [8] has as its target T1, human CD300A-Q. Nature of the assay: assay not given; reference antibody in the CD300A-Q flow cytometry comparison of paragraph 258.

Positions count from the first letter of the chain named. Names may count otherwise.

B1: HuNO.1R (antibody, V domains shown)
VH: EVQLVESGGGLVQPGGSLRLSCAASGFTFSSYGMSWVRQAPGKRLEWVATISSGGSYTYYPDSVKGRFTISRDNAKNSLYLQMNSLRAEDTAVYYCARHGDYGYPWFAYWGQGTMVTVSS
VL: QIQMTQSPSSLSASVGDRVTMTCTASSSVSSSYLHWYQQKPGKAPKLWIYSTSNLASGVPSRFSGSGSGTDYTLTISSLQPEDFATYYCHQYHRSHTFGGGTKVEIK
notes: Transient HEK293 supernatant; Human IgG/kappa constant regions
Take B1: the binding result in assay [1] is “binds”.

B2: HuNO.1U (antibody, human IgG1, kappa, L234A L235A, V domains shown)
VH: B1 VH with G42D
VL: QIQMTQSPSSLSASVGDRVTMTCTASSSVSSSYLHWYQQKPGKAPKLWIYSTSNLASGVPSRFSGSGSGTDYTLTISSLQPEDFATYYCHQYHRSHTFGGGTKVEIKR
notes: VH = Hu NO; also called Humanized NO; 1 antibody
One may read the Kd as the free concentration of one partner at which half of the binding sites on the other are occupied at equilibrium, for simple one-to-one binding. A lower Kd goes with a tighter complex. In turn, B2 yielded a dissociation constant (Kd) in assay [2] of 22 nM. Further, in assay [3], the binding result is on record as “no binding (tested: 0.5 µg antibody per 1 × 10^5 cells)”.

B3: HuNO.1V (antibody, V domains shown)
VH: B1 VH with V93M
VL: B1 VL
notes: Position 89 may be a Kabat number rather than a count on the entry; Transient HEK293 supernatant; Human IgG/kappa constant regions
On to B3, for which the binding result in assay [4] is listed as “binds”.

B4: HuNO.1W (antibody, V domains shown)
VH: B1 VH with G10D
VL: B1 VL
notes: as for B1
B4: the binding result in assay [1] is “binds”.

B5: HuNO.1T (antibody, V domains shown)
VH: B1 VH with R19K
VL: B1 VL
notes: as for B1
As to B5, in assay [5], the binding result is listed as “binds”.

B6: Antibody NO. 3 (antibody, V domains shown)
VH: QIQLVQSGPELKKPGETVKISCKASGYTFTHYGLNWVKQAPGKGLQWMGWIHTYTGESTYADDFKGRSAFSLETSASTAYLQINNLKNEDTATYFCARGGKDALDYWGQGTSVTVSS
VL: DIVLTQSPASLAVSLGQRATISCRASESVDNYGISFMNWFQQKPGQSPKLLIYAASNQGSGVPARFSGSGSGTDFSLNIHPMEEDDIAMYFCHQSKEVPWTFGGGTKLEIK
notes: Mouse monoclonal antibody from a hybridoma
On to B6, for which the values for the binding result in assay [6] and in assay [7] were “no binding (tested: 0.5 µg antibody per 1 × 10^5 cells)” and “binds”, respectively.

B7: Antibody NO. 1 (antibody, V domains shown)
VH: EVQLVESGGDLVKPGGSLKLSCAASGFTFSSYGMSWVRQTPDKRLEWVATISSGGSYTYYPDSVKGRFTISRDNAKNTLYLQMSSLKSEDTAMYYCARHGDYGYPWFAYWGQGTLVTVSA
VL: QIVLTQSPAIMSASLGERVTMTCTASSSVSSSYLHWYQQKPGSSPKLWIYSTSNLASGVPARFSGSGSGTSYSLTISSMEAEDAATYYCHQYHRSHTFGGGTKLEIK
notes: Mouse monoclonal antibody from a hybridoma, purified from ascites; also called mouse Antibody NO
Consider B7, for which the binding result in assay [6] is on record as “no binding (tested: 0.5 µg antibody per 1 × 10^5 cells)”; in assay [7], “binds”.

B8: chimeric NO. 1 IgG1/kappa antibody (Ch NO. 1) (antibody, V domains shown)
VH: B7 VH
VL: B7 VL
notes: Mouse NO; 1 VH and VL on human γ-1 and κ constant regions; The γ-1 chain carries L234A/L235A; also called mouse-human chimeric NO; 1 IgG1/kappa antibody
In the case of B8, the binding result in assay [8] was “binds”.

The record behind these values is patent publication EP4703387A1 (University of Tsukuba, dated 2026).
